Measured values as given in IntAct's records for PubMed 19909339.

B1: Olfactory receptor 2AG1 (Homo sapiens), Q9H205 (parent)
chain: MELWNFTLGSGFILVGILNDSGSPELLCATITILYLLALISNGLLLLAITMEARLHMPMYLLLGQLSLMDLLFTSVVTPKALADFLRRENTISFGGCALQMFLALTMGGAEDLLLAFMAYDRYVAICHPLTYMTLMSSRACWLMVATSWILASLSALIYTVYTMHYPFCRAQEIRHLLCEIPHLLKVACADTSRYELMVYVMGVTFLIPSLAAILASYTQILLTVLHMPSNEGRKKALVTCSSHLTVVGMFYGAATFMYVLPSSFHSTRQDNIISVFYTIVTPALNPLIYSLRNKEVMRALRRVLGKYMLPAHSTL

Variants of: B1
Settings: with mpdz_human MPDZ
In the case of MELWNFTLGSGFILVGILNDSGSPELLCATITILYLLALISNGLLLLAITMEARLHMPMYLLLGQLSLMDLLFTSVVTPKALADFLRRENTISFGGCALQMFLALTMGGAEDLLLAFMAYDRYVAICHPLTYMTLMSSRACWLMVATSWILASLSALIYTVYTMHYPFCRAQEIRHLLCEIPHLLKVACADTSRYELMVYVMGVTFLIPSLAAILASYTQILLTVLHMPSNEGRKKALVTCSSHLTVVGMFYGAATFMYVLPSSFHSTRQDNIISVFYTIVTPALNPLIYSLRNKEVMRALRRVLGKYMLPAHSTW [L316W], the “effect of a mutation on the interaction” value is reported as “disrupting interaction”.
In the case of MELWNFTLGSGFILVGILNDSGSPELLCATITILYLLALISNGLLLLAITMEARLHMPMYLLLGQLSLMDLLFTSVVTPKALADFLRRENTISFGGCALQMFLALTMGGAEDLLLAFMAYDRYVAICHPLTYMTLMSSRACWLMVATSWILASLSALIYTVYTMHYPFCRAQEIRHLLCEIPHLLKVACADTSRYELMVYVMGVTFLIPSLAAILASYTQILLTVLHMPSNEGRKKALVTCSSHLTVVGMFYGAATFMYVLPSSFHSTRQDNIISVFYTIVTPALNPLIYSLRNKEVMRALRRVLGKYMLPAHWTL [S314W], the “effect of a mutation on the interaction” value is reported as “disrupting interaction”.
